Measured values reported in PMC6318295, “Plant HP1 protein ADCP1 links multivalent H3K9 methylation readout to heterochromatin formation” (Cell Research, 2018).

Key:
[1] = target: ADCP1 Agenet 3/4 domain (amino acids 201-355) (Arabidopsis thaliana) (UniProt Q500V5); assay: ITC; H3 peptides (usually 1 mM) titrated into ADCP1 tandem Agenet domains (0.05-0.1 mM); 25 °C; 100 mM NaCl, 20 mM Tris-HCl, pH 7.5; MicroCal PEAQ-ITC; 'One Set of Sites' fitting model
[2] = target: ADCP1 Agenet 1/2 domain (amino acids 31-177) (Arabidopsis thaliana) (UniProt Q500V5); assay: as above
[3] = target: ADCP1 (Agenet Domain Containing Protein 1) Agenet 3/4, 201-355 (UniProt Q500V5); assay: ITC; details: reference: H3K9me2 peptide; sites S10
[4] = target: ADCP1 (Agenet Domain Containing Protein 1) Agenet 5/6, 376-517 (UniProt Q500V5); assay: ITC; details: reference: H3K9me2 peptide; sites S10
[5] = target: ADCP1 (Agenet Domain Containing Protein 1) Agenet 1/2, 31-177 (UniProt Q500V5); assay: ITC; details: reference: H3K9me2 peptide; sites S10
[6] = target: T1, ADCP1 Agenet 1/2 domain (amino acids 31-177) (Arabidopsis, UniProt Q500V5 31-177); assay: ITC
T1 chain: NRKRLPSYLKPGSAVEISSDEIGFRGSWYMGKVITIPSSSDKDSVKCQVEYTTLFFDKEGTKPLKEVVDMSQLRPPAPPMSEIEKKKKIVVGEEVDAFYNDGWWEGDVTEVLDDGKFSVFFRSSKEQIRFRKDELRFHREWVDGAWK

[7] = test system: H3(S10A)K9me3 NA with ADCP1; assay: Aurora B treatment of phase-separated ADCP1-H3(S10A)K9me3 NA; format: biochemical; details: kinase 5 µM, ATP 50 µM, 30 °C, 5 h
Description: (§1) Aurora B kinase, ATP (NEB, P0756S) and 10 × kinase buffer (CST, 9802S) were added to the nucleosome array. The final concentration of kinase was 5 µM and ATP was 50 µM. The mixture was incubated at 30 °C for 5 h. The reaction product was detected by the ph-H3S10 antibody (Abcam, ab5176).
(§2) ADCP1 Agenet domain 1-4 (1-355 aa) and Agenet 3-6 (201–517 aa) proteins were stored in 20 mM HepesNa, pH 7.4, 150 mM NaCl. A 1:1 molar ratio of Alex 488 (Invitrogen, A10254, dissolved in DMSO) was added into ADCP1 and the mixture was incubated at room temperature for 1 h. The excess dye was removed using MicroSpin G-50 column (GE Healthcare, 27533001). DAPI was added to native/K9me3/K9me3S10A 12× nucleosome array to label the DNA. Protein and nucleosome array were diluted to a proper concentration. Equal volume of nucleosome array and ADCP1 were mixed in a 384 well glass bottom plate (Cellvis, P384-1.5H-N). For Fig. 6a, the concentrations of three proteins were 30 μM. […] The sample volume in each well was 5–10 μL. After 1 h incubation at room temperature, images were captured by Nikon A1RMP confocal microscope with 100 × oil objective. For FRAP analysis, mean fluorescence intensities from five regions of interests (ROIs) of time-lapse images were computed. ROI-1 was the bleached droplet, ROI-2 was a non-bleached droplet, ROI-3 was a background region. NIS-element software was used for data analysis.

[8] = test system: ADCP1-H3K9me3 NA; assay: Aurora B treatment of phase-separated ADCP1-H3K9me3 NA; format: biochemical; details: kinase 5 µM, ATP 50 µM, 30 °C, 5 h
Description: as §1, §2

ADCP1 Agenet 3/4 domain (amino acids 201-355) (Arabidopsis thaliana), sequence (Q500V5 201-355): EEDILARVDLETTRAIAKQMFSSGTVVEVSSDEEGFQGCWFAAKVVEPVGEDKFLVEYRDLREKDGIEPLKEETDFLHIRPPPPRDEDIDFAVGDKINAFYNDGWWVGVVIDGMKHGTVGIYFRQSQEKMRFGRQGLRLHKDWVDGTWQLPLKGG

## H3(1-15)K4me3 peptide
[1]
  Ka: 24000 M⁻¹
  stoichiometry N: 0.971
[2]
  Ka: 19000 M⁻¹
  stoichiometry N: 1.12

## H3(1-15)K9me2 peptide
[2]
  Ka: 333000 M⁻¹
  stoichiometry N: 1.01

## H3(1-15)K9me2S10ph peptide
[1]
  Ka: 10000 M⁻¹
  stoichiometry N: 1

## histone H3 (synthetic H3 peptides) 1-15 (from UniProt P59226) H3K9me2S10ph peptide
[3]
  binding against the reference: weaker
[4]
  binding against the reference: weaker
[5]
  binding against the reference: weaker

B1: H3K9me3S10ph (peptide)
chain: ARTKQTARKSTGGKA
modifications: trimethyl-Lys9, phospho-Ser10 (mature H3 numbering; precursor 10 and 11). Taken as the ITC peptide of Fig. 1e with limits 1-15 from the paper's other H3K9me peptides; the text uses the same name for the Aurora B-treated MLA nucleosome array, which is a different molecule
[6]
  Kd: 42.5 µM

B2: Aurora B: human Aurora B kinase, causes S10 phosphorylation (protein, UniProt Q96GD4 1-344, looked up)
Aurora kinase B: MAQKENSYPWPYGRQTAPSGLSTLPQRVLRKEPVTPSALVLMSRSNVQPTAAPGQKVMENSSGTPDILTRHFTIDDFEIGRPLGKGKFGNVYLAREKKSHFIVALKVLFKSQIEKEGVEHQLRREIEIQAHLHHPNILRLYNYFYDRRRIYLILEYAPRGELYKELQKSCTFDEQRTATIMEELADALMYCHGKKVIHRDIKPENLLLGLKGELKIADFGWSVHAPSLRRKTMCGTLDYLPPEMIEGRMHNEKVDLWCIGVLCYELLVGNPPFESASHNETYRRIVKVDLKFPASVPMGAQDLISKLLRHNPSERLPLAQVSAHPWVRANSRRVLPPSALQSVA
[7]
  dissolution of phase transition by Aurora B, H3(S10A)K9me3 NA: not the latter can be dissolved by Aurora B treatment
[8]
  dissolution of phase transition by Aurora B, H3K9me3 NA: phase transition of the former but not the latter can be dissolved by Aurora B treatment
